# Results from patent US20130280807A1, “CELL CULTURE CHAMBER, METHOD FOR PRODUCING SAME, TISSUE MODEL USING CELL CULTURE CHAMBER, AND METHOD FOR PRODUCING SAME” (priority 2010, published 2013).
# B1: NGF: NGF (upstate #01-125; 5 ng/ml) added to culture medium, acting on PC-12 cells (protein, UniProt P01139 122-241, looked up)
# Beta-nerve growth factor: SSTHPVFHMGEFSVCDSVSVWVGDKTTATDIKGKEVTVLAEVNINNSVFRQYFFETKCRASNPVESGCRGIDSKHWNSYCTTTHTFVKALTTDEKQAAWRFIRIDTACVCVLSRKATRRG
# modifications: Beta-nerve growth factor
# notes: NGF (upstate #01-125; 5 ng/ml) added to culture medium, acting on PC-12 cells
# Tested on: PC-12 cells
# Experiment: Neurite extension of PC-12 cells by the effect of NGF through membrane
# Format: cell-based
# Details: 2 days
# Protocol: The vitrigel chamber was hung and held in the container (FIGS. 5, (A) and (B)), and PC-12 cells suspended in a culture medium [Dulbecco's modified Eagle's culture medium (GIBCO BRL #11885-084) containing 10% inactivated fetal bovine serum (Sigma #F2442), 20 mM HEPES (GIBCO BRL #15630), 100 units/ml penicillin, and 100 μg/ml streptomycin] were seeded in 2.5×10^3 cells/cm^2 in the vitrigel chamber. A culture medium (1.2 ml), either containing NGF (upstate #01-125; 5 ng/ml) or by itself, was also injected into the container (FIG. 13).
# The same experiment was conducted with the commercially available collagen membrane chamber (Koken; permeable collagen membrane #CM-24 for cell culture).
molecule,measurement,setting,value
B1,"neurite extension of PC-12 cells (cell morphology, phase-contrast microscope)","commercially available collagen membrane chamber (Koken #CM-24), NGF in container",neurite extension was not confirmed
same,"neurite extension of PC-12 cells (cell morphology, phase-contrast microscope)","vitrigel chamber, NGF 5 ng/ml in culture medium in container, acting through vitrigel membrane",neurite extension was confirmed
